# In patent US20250011363A1, “OPTIMIZED SHORTENED PEPTIDE THAT BINDS TO ACETYLCHOLINE RECEPTOR, AND USE THEREOF” (SKINMED CO., LTD., priority 2021, published 2025):
# Target: acetylcholine receptor (Homo sapiens, UniProt P02708)
# Assay: SPR binding affinity (RU) of optimized 5mer/6mer/7mer peptides, Examples 6-7
# Conditions: 6mer-1 Top sequence; SPR; peptides tested at 10 μM
# In short: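 Response units from SPR give the binding values listed. Each synthesized peptide was run at 10 μM over the receptor.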
# acetylcholine receptor, sequence (P02708 21-457): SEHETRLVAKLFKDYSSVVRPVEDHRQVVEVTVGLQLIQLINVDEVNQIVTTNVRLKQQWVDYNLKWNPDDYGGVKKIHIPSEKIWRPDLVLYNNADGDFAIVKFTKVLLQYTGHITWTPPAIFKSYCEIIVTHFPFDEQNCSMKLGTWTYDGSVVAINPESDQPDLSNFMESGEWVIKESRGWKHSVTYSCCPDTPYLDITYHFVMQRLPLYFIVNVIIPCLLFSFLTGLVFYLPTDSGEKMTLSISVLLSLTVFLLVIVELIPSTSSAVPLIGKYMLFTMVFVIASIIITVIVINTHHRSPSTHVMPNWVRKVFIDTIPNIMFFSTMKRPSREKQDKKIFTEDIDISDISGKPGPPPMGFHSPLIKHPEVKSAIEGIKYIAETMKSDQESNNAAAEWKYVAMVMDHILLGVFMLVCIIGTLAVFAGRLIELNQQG
row,Substance,Binding affinity [Ru]
1,6mer-1-373 (KRGVLK),149
2,6mer-1-365 (KKRICK),142
3,6mer-1-400 (KRWQTK),123
4,6mer-1-312 (KKSRQK),151
5,6mer-1-231 (KRQRTK),136
6,6mer-1-320 (KRVQYR),121
7,6mer-1-369 (KKWYRK),144

# Same assay, conditions: 6mer-2 Top sequence; SPR; peptides tested at 10 μM
row,Substance,Binding affinity [Ru]
1,6mer-2-114 (KLQYRK),121
2,6mer-2-66 (RVIRRR),123
3,6mer-2-51 (KQFLKK),139
4,6mer-2-77 (KQQTRR),123
5,6mer-2-151 (KQLRKR),142
6,6mer-2-186 (KQICRK),127
7,6mer-2-172 (KVIRKK),128

# Same assay, conditions: SPR, Resonance Units; 5mer Bottom sequence (bottom combinations); peptides tested at 10 μM
row,Substance,Binding affinity [Ru]
1,5mer-634 (RMMMR),26
2,5mer-687 (RMEIR),22
3,5mer-755 (KNWDR),15
4,5mer-671 (KMNAK),21
5,5mer-964 (KYTDR),22
6,5mer-1017 (RCTWK),24
7,5mer-614 (RNTWK),29
8,5mer-732 (KIMWR),22
9,5mer-943 (KDKGK),12
10,5mer-810 (KFHKK),11
11,5mer-686 (RFNIR),18
12,5mer-1086 (RIWDR),19
13,5mer-650 (RPEDK),22
14,5mer-693 (RPSKK),17
15,5mer-605 (RECFK),22
16,5mer-620 (RCMHK),23
17,5mer-1043 (KFEMK),15
18,5mer-738 (KTPMK),29

# Same assay, conditions: SPR, Resonance Units; peptides tested at 10 μM; 6mer-1 Bottom sequence
row,Substance,Binding affinity [Ru]
1,6mer-1-1158 (RKPMMK),33
2,6mer-1-1042 (KKITAR),40
3,6mer-1-1026 (RKKCER),30
4,6mer-1-1156 (KRYTVR),37
5,6mer-1-1095 (RRCHVK),27
6,6mer-1-1011 (RKKPEK),35
7,6mer-1-1185 (KKEMMK),29
8,6mer-1-1018 (KKTAFK),28
9,6mer-1-1106 (KRFMNK),39
10,6mer-1-1109 (KRCCVR),41

# Same assay, conditions: SPR, Resonance Units; peptides tested at 10 μM; 6mer-1 Bottom sequence (Table 11)
row,Substance,Binding affinity [Ru]
1,6mer-1-700 (RKKMWK),19
2,6mer-1-738 (RKYHHR),25
3,6mer-1-687 (RREWIK),23
4,6mer-1-744 (RKHEIK),31
5,6mer-1-760 (KRMMVR),21
6,6mer-1-626 (KRPDNR),27
7,6mer-1-601 (KKEWNK),27
8,6mer-1-660 (KKYHVK),31
9,6mer-1-624 (KKPPAK),30

# Same assay, conditions: SPR, Resonance Units; peptides tested at 10 μM; 6mer-2 Bottom sequence
row,Substance,Binding affinity [Ru]
1,6mer-2-794 (KAEMRR),19
2,6mer-2-881 (KDTEKK),33
3,6mer-2-607 (KKWVKR),31
4,6mer-2-612 (RDCVRK),17
5,6mer-2-626 (KNSEKK),33
6,6mer-2-990 (RKKMKR),41
7,6mer-2-683 (KTEIRK),33
8,6mer-2-684 (RYTMKK),14
9,6mer-2-887 (RCPKKR),18
10,6mer-2-690 (KFTMRK),13
11,6mer-2-720 (RATNRK),29
12,6mer-2-750 (RKCVKR),29
13,6mer-2-804 (RNCGKR),21
14,6mer-2-747 (RANFRR),29
15,6mer-2-847 (RYCHKR),22
16,6mer-2-953 (KESVKK),25
17,6mer-2-764 (RNAVKK),31
18,6mer-2-966 (KEDAKR),41
19,6mer-2-813 (KKMDRR),29
20,6mer-2-666 (KPMDRR),25
21,6mer-2-755 (RYNDKK),18
22,6mer-2-663 (KFAGRR),24

# Same assay, conditions: SPR, Resonance Units; peptides tested at 10 μM; 6mer-2 Top sequence
row,Substance,Binding affinity [Ru]
1,6mer-2-479 (KWRLKK),154
2,6mer-2-579 (RWQYRK),135
3,6mer-2-504 (RGLTRK),154
4,6mer-2-587 (KRISKR),148
5,6mer-2-454 (RSVQKK),133
6,6mer-2-465 (KGVSKR),122
7,6mer-2-407 (KQVSKR),122
8,6mer-2-567 (KLYYRK),146

# Same assay, conditions: SPR, Resonance Units; peptides tested at 10 μM; 6mer-2 Top sequence (Table 12)
row,Substance,Binding affinity [Ru]
1,6mer-2-401 (RSILRK),153
2,6mer-2-250 (KRRRKK),145
3,6mer-2-223 (KQLTRR),142
4,6mer-2-325 (RVFSRK),142
5,6mer-2-366 (KQYYRR),142

# Same assay, conditions: SPR, peptides at 10 μM; 6mer-2 Bottom sequence
row,Substance,Binding affinity [Ru]
1,6mer-2-1187 (RTADRK),36
2,6mer-2-1036 (KAKNKR),25
3,6mer-2-1180 (RAANRR),34
4,6mer-2-1109 (KEDMRK),26
5,6mer-2-1021 (RYTPKR),39
6,6mer-2-1139 (KAKAKK),39

# Same assay, conditions: SPR, peptides tested at 10 μM; 5mer Top sequence
row,Substance,Binding affinity [Ru]
1,5mer-491 (KQIRR),81
2,5mer-389 (KWRRR),57
3,5mer-139 (RLQYK),73
4,5mer-19 (KRFQR),72
5,5mer-130 (RRFRK),80
6,5mer-324 (KSQRR),58
7,5mer-75 (KVQTK),63
8,5mer-184 (KLQCR),68
9,5mer-420 (KLFCR),84
10,5mer-449 (KGLYR),65
11,5mer-426 (RRVSR),57
12,5mer-190 (RWRSR),84
13,5mer-42 (RQRLR),83
14,5mer-314 (RWYTR),80

# Same assay, conditions: SPR, peptides tested at 10 μM; 5mer Top sequence (top combinations)
row,Substance,Binding affinity [Ru]
1,5mer-515 (RGQRK),56
2,5mer-551 (RWQYR),59
3,5mer-582 (RGICK),82
4,5mer-292 (KLVCK),59
5,5mer-262 (KSRCR),59
6,5mer-543 (RLRLK),65
7,5mer-295 (RGRCR),52
8,5mer-221 (RGRTR),58
9,5mer-553 (KLLSR),72
10,5mer-563 (RLVLK),60
11,5mer-233 (RVYYK),84

# Same assay, conditions: SPR, peptides tested at 10 μM; 6mer-1 Bottom sequence
row,Substance,Binding affinity [Ru]
1,6mer-1-1198 (RRATER),28

# Same assay, conditions: SPR, peptides tested at 10 μM; 6mer-1 Bottom sequence (Table 11)
row,Substance,Binding affinity [Ru]
1,6mer-1-968 (RREDFR),39
2,6mer-1-818 (RKIKAR),14
3,6mer-1-991 (RKAHDK),25

# Same assay, conditions: SPR, peptides tested at 10 μM; 6mer-1 Top sequence
row,Substance,Binding affinity [Ru]
1,6mer-1-565 (KRSIRR),151
2,6mer-1-502 (RKLFSR),146
3,6mer-1-503 (KRRLCK),151
4,6mer-1-584 (RKQVSK),127
5,6mer-1-481 (KRWRCK),133
6,6mer-1-548 (RRVYSR),123
7,6mer-1-552 (RKRYRK),144
8,6mer-1-581 (KRGLYK),139
9,6mer-1-425 (RKGVQK),131
10,6mer-1-455 (RRVFYK),126

# Same assay, conditions: SPR, peptides tested at 10 μM; 6mer-1 Top sequence (top combinations)
row,Substance,Binding affinity [Ru]
1,6mer-1-10 (KRWRLK),139
2,6mer-1-147 (KKQIQR),125
3,6mer-1-136 (RRWLYK),148
4,6mer-1-176 (KKVYCK),121
5,6mer-1-195 (KRGISR),122
6,6mer-1-16 (KKQYCR),136
7,6mer-1-173 (RKQYYR),123

# Same assay, conditions: SPR; XRRGVRR-7mer and RRGVRRX-7mer
row,Substance,"Binding affinity, values relative to the RRGVRR sequence"
1,3679 (RRGVRRD) [compound 3679],61

# Same assay, conditions: SPR; XRRQRR-6mer and RRQRRX-6mer
row,Substance,"Binding affinity, relative value to the RRQRR sequence"
1,3627 (RRQRRI) [compound 3627],133
2,3623 (RRQRRV) [compound 3623],120
3,3632 (RRQRRT) [compound 3632],117

# Same assay, conditions: SPR; peptides tested at 10 μM; 5mer Bottom sequence
row,Substance,Binding affinity [Ru]
1,5mer-823 (KECFK),26
2,5mer-1129 (KFDAR),14
3,5mer-853 (RYHIK),13
4,5mer-815 (RKDHR),27
5,5mer-1170 (KHSEK),28
6,5mer-1134 (RTCKR),26
7,5mer-1116 (KECFR),24
8,5mer-1182 (REKWK),15
